Data: patent publication US20050239074

Molecular target: T1, human parathyroid hormone, P01270
T1 chain: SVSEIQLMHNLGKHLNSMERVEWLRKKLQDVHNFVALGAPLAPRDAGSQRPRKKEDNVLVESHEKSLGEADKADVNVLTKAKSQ

B1: Hansenula polymorpha yapsin1 (protein)
chain: DPQFVKLEASVLRGSTYKDSQKGAKPFMLEKRADDGSVTMELQNAQSFYQVEIEIGSDKQKVGVLIDTGSSDLWVMNSNNSYCSSSSTKKLKRDGPADALQKGRDLSDLYNFNSPNEDNNAKGFLGGWGDLTTVETATQDETQTALAAQATVDCSLYGTFNPSTSNSFHNNGTTFEISYADRTFARGTWGYDDVTFNGVTVNDLSLAVADETDSSTGVFGIGLRELETTYSGGGPQHYIYDNLPFKMVDQGLINRAAYSVYLNSTESSTASILFGAVDQSKYTGSLGLLPIINTAASYGYQKPLRLQITLSAITVSDSRGQQASIGSGAAAALLDTGTTLTYAPSEIVEKLAETLGFDYSSSVGAYVARCRDVDSYAVNFDFQGKVIEAPLSSFLIALQTNSGEVSSYCALGIFSSGDESFTLGDTFLRNAYFVADLEGYQIAIANVNLNPGAEQIEVISGNSIPSASSVSDYSNTWGASATALDTDRPTTLGSVTAVGDERVTSTKKVSSVKTSTSSGSGSTSESSTSSSHSSNGPRTVGFSLCAVLCAFLISILVV
degradation level of hPTH by the yapsin activity (culture supernatant incubated with hPTH for 2, 4 and 6 hours at 37 C, SDS-polyacrylamide gel): in the culture fluid of the wild type, it was already hard to observe hPTH remaining in the culture supernatant after 2 hour cultivation, while in the culture supernatant of hpyps1Δ mutant strain, a substantial amount of hPTH was observed
